Article PMC8545111, “Molecular Basis of the Versatile Regulatory Mechanism of HtrA-Type Protease AlgW from Pseudomonas aeruginosa” (mBio, 2021)

Tests used:
Experiment in all cases: cell-based or functional assay
AlgW-W281A = target: T1, AlgW-W281A (Pseudomonas aeruginosa, UniProt Q9HVX1 30-389, W281A)
T1 sequence: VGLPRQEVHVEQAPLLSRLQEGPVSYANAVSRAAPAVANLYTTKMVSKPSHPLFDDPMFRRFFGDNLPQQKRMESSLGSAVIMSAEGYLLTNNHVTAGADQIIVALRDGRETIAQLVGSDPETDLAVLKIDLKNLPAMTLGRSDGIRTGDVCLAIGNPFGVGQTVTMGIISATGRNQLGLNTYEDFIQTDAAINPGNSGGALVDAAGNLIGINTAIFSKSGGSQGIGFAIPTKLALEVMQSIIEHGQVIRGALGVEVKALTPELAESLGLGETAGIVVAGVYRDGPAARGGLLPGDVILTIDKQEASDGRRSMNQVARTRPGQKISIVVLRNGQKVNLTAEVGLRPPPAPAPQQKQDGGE

AlgW-K287A = target: T2, AlgW-K287A (Pseudomonas aeruginosa, UniProt Q9HVX1 30-389, K287A)
T2 sequence: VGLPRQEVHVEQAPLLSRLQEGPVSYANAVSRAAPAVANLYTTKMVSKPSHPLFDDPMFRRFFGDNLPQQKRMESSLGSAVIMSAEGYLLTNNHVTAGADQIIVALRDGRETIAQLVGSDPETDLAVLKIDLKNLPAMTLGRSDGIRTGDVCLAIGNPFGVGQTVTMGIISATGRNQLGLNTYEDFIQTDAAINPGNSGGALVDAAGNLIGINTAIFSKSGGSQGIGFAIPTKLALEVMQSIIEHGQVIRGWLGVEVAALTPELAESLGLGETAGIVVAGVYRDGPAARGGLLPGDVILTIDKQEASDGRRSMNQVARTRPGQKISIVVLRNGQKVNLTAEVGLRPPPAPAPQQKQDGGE

AlgW-E151A = target: T3, AlgW-E151A (Pseudomonas aeruginosa, UniProt Q9HVX1 30-389, E151A)
T3 sequence: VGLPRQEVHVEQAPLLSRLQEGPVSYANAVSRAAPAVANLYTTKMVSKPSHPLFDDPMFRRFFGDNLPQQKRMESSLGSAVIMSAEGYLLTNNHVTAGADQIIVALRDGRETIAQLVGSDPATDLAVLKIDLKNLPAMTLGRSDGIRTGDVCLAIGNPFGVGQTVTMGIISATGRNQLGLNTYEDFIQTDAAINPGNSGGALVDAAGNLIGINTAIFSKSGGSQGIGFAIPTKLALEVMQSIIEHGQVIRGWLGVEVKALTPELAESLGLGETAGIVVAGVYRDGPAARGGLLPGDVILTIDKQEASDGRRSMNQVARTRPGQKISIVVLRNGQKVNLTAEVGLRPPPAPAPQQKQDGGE

AlgW-R279A = target: T4, AlgW-R279A (Pseudomonas aeruginosa, UniProt Q9HVX1 30-389, R279A)
T4 sequence: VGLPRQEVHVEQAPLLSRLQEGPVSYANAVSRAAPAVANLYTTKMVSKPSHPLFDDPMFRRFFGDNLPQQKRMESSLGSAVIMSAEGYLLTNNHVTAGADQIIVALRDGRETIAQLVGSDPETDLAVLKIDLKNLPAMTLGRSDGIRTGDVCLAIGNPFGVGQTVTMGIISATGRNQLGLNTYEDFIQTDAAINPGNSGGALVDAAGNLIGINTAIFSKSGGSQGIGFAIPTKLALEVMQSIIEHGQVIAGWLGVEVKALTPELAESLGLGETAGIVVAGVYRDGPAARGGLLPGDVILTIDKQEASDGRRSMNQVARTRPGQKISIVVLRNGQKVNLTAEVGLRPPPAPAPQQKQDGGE

[1] = target: T5, soluble AlgW (residues 30 to 389, without the N-terminal transmembrane segments) (Pseudomonas aeruginosa, UniProt Q9HVX1 30-389)
T5 sequence: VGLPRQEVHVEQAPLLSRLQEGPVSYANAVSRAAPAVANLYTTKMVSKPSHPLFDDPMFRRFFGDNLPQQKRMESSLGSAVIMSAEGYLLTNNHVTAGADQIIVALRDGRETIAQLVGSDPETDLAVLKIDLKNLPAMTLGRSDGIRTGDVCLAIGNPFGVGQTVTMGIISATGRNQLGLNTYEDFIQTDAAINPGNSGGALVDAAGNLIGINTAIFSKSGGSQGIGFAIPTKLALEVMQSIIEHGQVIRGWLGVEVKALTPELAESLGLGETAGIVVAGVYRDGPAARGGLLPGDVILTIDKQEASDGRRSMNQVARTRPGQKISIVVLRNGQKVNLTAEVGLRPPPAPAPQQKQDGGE

AlgW-R347A = target: T6, AlgW-R347A (Pseudomonas aeruginosa, UniProt Q9HVX1 30-389, R347A)
T6 sequence: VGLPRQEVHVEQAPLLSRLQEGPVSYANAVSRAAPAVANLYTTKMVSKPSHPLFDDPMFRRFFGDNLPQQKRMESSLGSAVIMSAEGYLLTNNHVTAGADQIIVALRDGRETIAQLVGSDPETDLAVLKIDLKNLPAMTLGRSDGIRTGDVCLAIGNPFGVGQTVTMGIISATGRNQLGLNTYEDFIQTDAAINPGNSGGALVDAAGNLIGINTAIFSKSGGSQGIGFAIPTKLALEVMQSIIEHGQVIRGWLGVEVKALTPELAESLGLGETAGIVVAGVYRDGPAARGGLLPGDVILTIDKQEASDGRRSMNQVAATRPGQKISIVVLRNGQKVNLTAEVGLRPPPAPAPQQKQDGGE

B1: decapeptide SVRDELRWVF (MucE C-terminal tail) (peptide)
peptide: SVRDELRWVF
notes: C-terminal decapeptide of the periplasmic protein MucE of Pseudomonas aeruginosa; also called C-terminal decapeptide of MucE
half-maximal activation concentration of the peptide activator (cleavage of Abz-VLAG-pNA) (AlgW-W281A): 1.51 μM
maximal cleavage activity of peptide-activated AlgW (Abz-VLAG-pNA) (AlgW-W281A): 10.3 μM min^−1
half-maximal activation concentration of the peptide activator (cleavage of Abz-VLAG-pNA) (AlgW-K287A): 6.53 μM
maximal cleavage activity of peptide-activated AlgW (Abz-VLAG-pNA) (AlgW-K287A): 49.4 μM min^−1
half-maximal activation concentration of the peptide activator (cleavage of Abz-VLAG-pNA) (AlgW-E151A): 2.99 μM
half-maximal activation concentration of the peptide activator (cleavage of Abz-VLAG-pNA) (AlgW-R279A): 2.19 μM
half-maximal activation concentration of the peptide activator (cleavage of Abz-VLAG-pNA) [1]: 2.02 μM
maximal cleavage activity of peptide-activated AlgW (Abz-VLAG-pNA) [1]: 165 μM min^−1
half-maximal activation concentration of the peptide activator (cleavage of Abz-VLAG-pNA) (AlgW-R347A): 1.85 μM
